Molecular target: YY1;FOXP2 FHD (human?;human?, UniProt P25490;O15409 1-414;504-594, |)
Assay: EMSA; FOXP2 FHD 2.5-10 uM added; large complex more intense and slightly shifted; simultaneous binding suggested; Anisotropy: 10 mM HEPES pH 7.5, 100 mM NaCl, 20 C; EMSA: 0.5 uM DNA, 20% (v/v) of binding buffer (10 mM HEPES pH 7.5, 1 mM MgCl2, 100 mM KCl, 10% glycerol, 0.1)
Settings: protein: recombinant;recombinant; tags: N-terminal His6;His6 removed with thrombin

Chain of YY1;FOXP2 FHD (P25490 whole entry, chain 1 of 2): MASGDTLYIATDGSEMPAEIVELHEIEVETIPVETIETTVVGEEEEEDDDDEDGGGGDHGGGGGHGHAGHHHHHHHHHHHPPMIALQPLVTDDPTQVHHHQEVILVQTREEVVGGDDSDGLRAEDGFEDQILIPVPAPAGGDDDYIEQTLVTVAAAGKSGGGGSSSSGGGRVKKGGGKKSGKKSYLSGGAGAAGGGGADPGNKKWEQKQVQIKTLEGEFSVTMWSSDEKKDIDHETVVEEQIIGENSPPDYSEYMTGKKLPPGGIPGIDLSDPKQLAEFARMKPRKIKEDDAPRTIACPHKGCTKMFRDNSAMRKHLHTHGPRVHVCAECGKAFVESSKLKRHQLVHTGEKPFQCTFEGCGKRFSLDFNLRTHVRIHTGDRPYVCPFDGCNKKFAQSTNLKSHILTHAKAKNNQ
Chain of YY1;FOXP2 FHD (O15409 504-594, chain 2 of 2): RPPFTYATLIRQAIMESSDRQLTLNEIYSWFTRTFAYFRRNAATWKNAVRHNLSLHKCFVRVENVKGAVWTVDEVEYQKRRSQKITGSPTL

B1: AAV P5 DNA (dsDNA)
DNA 1: AGGGTCTCCATTTTGAAGCG
DNA 2: CGCTTCAAAATGGAGACCCT
Q: Does B1 bind?
A: binds
